# Measured values: the supplement of paper PMC9170038
# Assays:
# MS2 coat protein = experiment: apparent KD of MS2 coat protein; higher = weaker reporter binding; details: Eterna round: R107
# Experimental: (§1)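 RNA-MaP round R107: designed RNA switches with theophylline, tryptophan, arginine or FMN aptamers are transcribed on-chip within common flanks. They are titrated with SNAP-549-labelled MS2 coat protein in RNA-MaP buffer (100 mM Tris pH 7.5, 80 mM KCl, 4 mM MgCl2), without ligand or with the indicated ligand. Median apparent KD per design.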
# [1] = tested on: K4 kissing-loop RNA reporter; experiment: apparent KD of K4 kissing-loop reporter; higher = weaker reporter binding; details: Eterna round: R107;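 note: bound reporter read as fluorescence of individual clusters on recovered sequencing chips by microscopy, with normalized cluster intensities fitted with a binding model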
# Experimental: as §1, with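 “a labelled K4 kissing-loop RNA reporter” for “SNAP-549-labelled MS2 coat protein”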
# [2] = input ligand: theophylline 20 uM
# [3] = input ligand: theophylline 2 mM
# [4] = input ligand: tryptophan 2.4 mM
Sequence,apparent KD of MS2 coat protein (MS2 coat protein; input ligand: arginine 13.2 mM) [nM],apparent KD of MS2 coat protein (MS2 coat protein; input ligand: none) [nM],apparent KD of MS2 coat protein (MS2 coat protein; [2]) [nM],apparent KD of MS2 coat protein (MS2 coat protein; [3]) [nM],apparent KD of MS2 coat protein (MS2 coat protein; [4]) [nM],apparent KD of K4 kissing-loop reporter ([1]; input ligand: FMN 200 uM) [nM],apparent KD of K4 kissing-loop reporter ([1]; input ligand: arginine 13.2 mM) [nM],apparent KD of K4 kissing-loop reporter ([1]; input ligand: none) [nM],"apparent KD of K4 kissing-loop reporter [1, 2] [nM]","apparent KD of K4 kissing-loop reporter [1, 4] [nM]"
AAAACCUCACCUGAGGAACACCCAGGUGAUACCAGCCUGGAAACAGGCCCUUGGCAGCACCAGGUCAUCAAAGAUGACCAAAUAA [TheoAX 25 #OpenEnded #AlternativeMS2],17.5,22.7,40.7,595,21.3,,,,,
AAAAGACAUGAGGAUCACCCAUGUAGAGAUACCAGAUGCAUGGACAUCCCUUGGCAGCUCGUCACUUUCUAUAUUUUCCAGACGC [theeternabot_sameState_MS2_Theo_A_37],31,,59.1,,59.1,,,,,
AAAAGAGGUGGAAGGAGCGGGAGACAUGAGGAUCACCCAUGUGAAGUAACGAAAGGUACAGCCCAGGUAGGUCGCCAUGUCGAAA [qxqamullin],20.6,31.7,73.5,40.4,32.8,,,,,
AAAAGUAGGUCCAAUAAAACUACAUGUGAAGGAGCGCGCGAAAGCGCAGGUAGGUCGCACAUGAGGAUCACCCAUGUCCUACAAA [MAT - Exclusion Arginine A - Mod of Eli - D6],39.8,47.3,77.2,65.7,39.8,,,,,
AAAAUAAAAGGUGCAAAAUCCUAAUGUGAAGGAGCGCACGAAAGUGCAGGUAGGUCGCACAUGAGGAUCACCCAUGUAGCACCAA [ArgEX 4 #SwitchBubble],54.8,146,115,211,147,,,,,
AAAAUCCUACUUGAGGAUCACCCAGGUGAAGGAGCGCCCGAAAGGGCAGGUAGGUCGCACCUGAGGAUCACCCUGGUAACCUAAA [ArgEX 9 #DoubleMS2 #OpenEnded],140,164,171,211,178,,,,,
AAACGUUGCUGCGAUACCAGACAUGAGGAUCACCCAUGUACCAAGAAAACGUACAUAAAUGUCCCUUGGCAGCGCAGCAACGAAA [MAT - Exclusion Theophlline B - Mod of Eli - D28],141,,511,,635,,,,,
AAAUAAACCUCGGCCGCCACUCGCCAUGAGGAUCACCCAUGUAACAUGAGGAUCACCCAUGUACAGAGGACCGGGAGGUCCUAGU [Same State Tryptophan B GF 13],48.3,,68.9,87.1,,,,,,
AACAACAAGGGAAGGAGCGCGAAUAAUAAACAUGAGGAUCACCCAUGUAUCAUGGGCUUAACGCAGGUAGGUCGCCCACAAACAA [Exclusion Arginine B GF1],34,37.9,47.2,49.4,40.6,,,,,
AACACACCAAAUGAUACCAGCUACAACAUGAUACAAAACCACAUGAGGAUCACCCAUGUAAGCCCUUGGCAGCAUACUACUGUAA [theeternabot_exclusion_MS2_Theo_B_40],16.9,,24.2,,18.7,,,,,
AACAUACAAUAAUAGGUGGAUAUAAGGCGGCGAGGACCGGUACGGCCGCCACUCGCGUACAUGAGGAUCACCCAUGUCUGAAACU [Same State - Tryptophan A (Freestyle 3)],16.8,,26.8,27,,,,,,
AACAUGAGGAUCACCCAUGUCCUCGUGUACCGAGGACCGGUACGGCCGCCACUCGGUUCUCGCGAGGAUGGUCAAAGACUAUCCA [Omei Trp A SS B v4],202,,643,1010,,,,,,
AACGAGUGGCGGCCAUUGGGUGAUCCUCUACGAGGACCGGUACGGCCGCCACUCGAUAACAUGAGGAUCACCCAUGUGCCGAUAA [|T'-M'-Trp-Ms2|_Design10b],42.3,,164,240,,,,,,
AAGAACAUGAGGAUCACCCAUGUGAUCGUUCGAGGACCGGUACGGCCGCCACUCGGACCUGUGUCCAGGCACGGGCCGACGCGAC [theeternabot_sameState_MS2_Trp_A_21],74.8,,118,106,,,,,,
AAGACAUGAGGAUCACCCAUGUCGUCUACACGAGGACCGGUACGGCCGCCACUCGUUUGCCAAUGAGCGCAUGCGGCCUGGGUAU [Exclusion Tryp A GF3],13.2,,17.9,16.3,,,,,,
AAGACUGGACAUAAGUCCAGUCAACCUGAAGGAGCGGGUGGGUGCCCAGGUAGGUCGCGGGAACAUGAGGAUCACCCAUGUAUAA [ArgAS 5 #BothOrNeither #OpenEnded],17.4,25.8,16.9,31.9,24.6,,,,,
AAGGUAUCACAGACAUGGGUGUACUGUGAUACCAGCUAGGAAACUAGCCCUUGGCAGCACAUGAGGAUCACCCAUGUAAGAAUAA [(T)'-(M)'-(T1)-(T2)-(M1)-(M2)_Design4_2/19/17],34,,94.9,,53.8,,,,,
AAGGUGAUCCGUGAUACCAGCUCAACAUGAGGAUCACCCAUGUAAGCCUGGAAACAGGCGAGCCCUUGGCAGCACGGUUGCCAAG [(M)'-(Theo1)-(Ms2)-(Theo2)-(M'')-(T2)'_Design1],38.6,165,138,25.4,163,,,,,

Sequence,apparent KD of MS2 coat protein (MS2 coat protein; input ligand: arginine 13.2 mM) [nM],apparent KD of MS2 coat protein (MS2 coat protein; input ligand: none) [nM],apparent KD of MS2 coat protein (MS2 coat protein; [2]) [nM],apparent KD of MS2 coat protein (MS2 coat protein; [3]) [nM],apparent KD of MS2 coat protein (MS2 coat protein; [4]) [nM],apparent KD of K4 kissing-loop reporter ([1]; input ligand: FMN 200 uM) [nM],apparent KD of K4 kissing-loop reporter ([1]; input ligand: arginine 13.2 mM) [nM],apparent KD of K4 kissing-loop reporter ([1]; input ligand: none) [nM],"apparent KD of K4 kissing-loop reporter [1, 2] [nM]","apparent KD of K4 kissing-loop reporter [1, 4] [nM]"
AAGUGGCACGGAAGGAGCGAGUUUACCUAGAUAACAUGAGGAUCACCCAUGUAUAAUGGGACUCAGGUAGGUCGCCGCUGUCACU [#30 Same State - Arginine B],34.9,41.5,58.3,38.6,41.5,,,,,
AAUAACAUGAGGAUCACCCAUGUAAAAGAUACCAGAGUGAUGAUCCUCCCUUGGCAGCUUAAAACGCUAUUGAUUACAAUAGCGA [Mat - Same State Theophlline A - Mod of Eli - D4],38.3,,99,,45.3,,,,,
AAUAAGCAGCUGCAAGGUGAUCCUGCAGAUACCAGCUAGGAAACUAGCCCUUGGCAGCUGCAACAUGAGGAUCACCCAUGUAAUA [(T)'-(M)'-(T1)-(T2)-(M1)-(M2)_Design6],26.2,,61.7,,30.7,,,,,
AAUAAGUAUCUGCUAGGUGAUCCAGCAGAUACCAGCUAGGAAACUAGCCCUUGGCAGCUGCAACAUGAGGAUCACCCAUGUAAUA [(T)'-(M)'-(T1)-(T2)-(M1)-(M2)_Design3],98.7,,193,,407,,,,,
AAUAAUAAGGCGGCCGCCACUAAACAUGAGGAUCACCCAUGUCUCGCGGGCUUGCGUUGGGAAAGUAGGACCGGGCCAAUAAUAA [Exclusion - Tryptophan B (Freestyle 8)],16,15.7,20.6,14.7,14.4,,,,,
AAUAAUAAGGCGGCCGCCACUACACAUGAGGAUCACCCAUGUCUCGCGGGCUUGCGUUGGGAAAGUAGGACCGGGCCAAUAAUAA [Exclusion - Tryptophan B (Freestyle 9)],15.3,21.5,26,27.3,15.7,,,,,
AAUACAGCUACGGCCGCCACUUUAACUUGGUAUGGGUCCUUCACAAACAUGAGGAUCACCCAUGUAAGGACCGGGUAGCCUUGUU [theeternabot_exclusion_MS2_Trp_B_35],21.6,,28.4,24,,,,,,
AAUACCGGUCCUCGAAGCAUGGGUGAUCAACGAGGACCGGUACGGCCGCCACUCGAUAACAUGAGGAUCACCCAUGUAAUAAUAA [|T'-M'-Trp-Ms2|_Design5],34.4,313,395,552,569,,,,,
AAUACCGGUCCUCGAGGGUGAUCCUCAUGACGAGGACCGGUACGGCCGCCACUCGAUAACAUGAGGAUCACCCAUGUAAUCGAGU [|T'-M'-Trp-Ms2|_Design7b],34.1,,70.4,72.4,,,,,,
UUGGUUGUCGUAGGAUAUGUAGGAUAUUCUAAAAUAUGAAGUGAUGUUUCUAUAAUAAGAAGAAGGACAGAAGGACGAUAACCAU [FmnBS 2 - Salish transfer #DoubleAptamer],,,,,,84.7,100,111,103,99.1
UUGUGCAGCAAACGAGUGAUGUUCGACGAUACCAGCCUCGAUAGAGGCCCUUGGCAGCGUAAUAAUCACAGCCAAGGGCUGCACU [#SwitchBubble 4],,,,,,651,535,749,774,560
UUGUUUGGUUGAGAGGUUGGGCGAGAUGAUACCAGUAUAGAAGAGUACCCUUGGCAGCAUAGGAGAGAUAUAGUGAUGUUGUAUG [SSTheophA.T],,,,,,437,355,480,494,333
UUUAAAUAUAGUGAUGUUAUAUAACAAUGACGAGGACCGGUACGGCCGCCACUCGAGAGAGAUAAUGGUCAUGCAAAUGUAUGUC [#15 K4 Tryptophan A Same State],,,,,,674,684,789,746,615
UUUCCAGAUAAGUGGGAACACUCCAUAACAGAGGAUAUCAGAGCGCUGAGAAGGCUGUUUUACAGUGAUGUUGUAAGUGUGGAGU [FMN A SS t2],,,,,,153,249,283,304,253
UUUGGAGUGGGAGGAUAUCCUAAUAUGGGUGAUGUUAGCGAUGUUGAAGGUGUAGUGAUGUUAUGCGGAGAAGGCCCAGUGUAGA [BDazzled - #18 - Exc. FMN B],,,,,,166,146,245,273,221
UUUUAUUAAUUCUUCUAGUGAUGUUAGAUACGAGGACCGGUACGGCCGCCACUCGCUUAUUGGUUUAUAUAUUUUAUAUUCUUUA [JR_SSTryptoA_Sub015],,,,,,293,319,330,400,264
UUUUUCGCGUUUGAUACCAGCAGAGUUGUUCGUGUCUGGAGCGUGAGUGAUGUUCAUGUCUGCCCUUGGCAGCAAACGGGAGAAG [KL-XTheo-B14],,,,,,137,113,123,97.1,134
